Laboratory results as given in EP2397495A1 (SANOFI, dated 2011).
Changes are numbered by the printed parent chain. Where “and” joins values, the source holds several entries; their conditions need not be identical. Equal values may be shown once.

T1: human GPVI on the platelet surface (human, UniProt Q9HCN6 21-339)
T1 sequence (looked up): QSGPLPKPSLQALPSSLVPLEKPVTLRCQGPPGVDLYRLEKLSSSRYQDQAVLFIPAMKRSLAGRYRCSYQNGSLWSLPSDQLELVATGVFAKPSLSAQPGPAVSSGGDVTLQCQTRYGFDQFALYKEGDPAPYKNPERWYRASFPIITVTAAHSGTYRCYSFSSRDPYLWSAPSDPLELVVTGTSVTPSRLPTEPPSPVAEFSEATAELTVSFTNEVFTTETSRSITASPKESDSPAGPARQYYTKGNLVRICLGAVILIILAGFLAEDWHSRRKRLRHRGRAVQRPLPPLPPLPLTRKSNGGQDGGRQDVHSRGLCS

B1: humanized anti-GPVI Fab VL1 with VH2 (Fab, V domains shown)
VH: QVQLQESGPGLVAPSQSLSITCTVSGFSLTGYGVNWVRQPPSRGLEWLGMIWGDGSTDYQSTLKSRLSISKDNSKSQVFLKMNSLTTDDTARYYCARDLPMDYWGQGTSVTVSS
VL: DIQMTQSPSSLSASVGGRVTITCKASQDINKYIAWYQHKPGKGPSLLIHYTSTLQPGVPSRFSGSGSGRDYSFSISNLQPEDIATYYCLQYANLLTFGGGTKLEIKR
B2: humanized anti-GPVI Fab VL1 with VH1 (Fab, V domains shown)
VH: B1 VH with N73T
VL: B1 VL
B3: humanized anti-GPVI Fab VL1 with VH3 (Fab, V domains shown)
VH: B1 VH with Q1E, Q5L, Q16G, S42G, R43K, T86R, Q106L
VL: B1 VL
B4: humanized anti-GPVI Fab VL1 with VH4 (Fab, V domains shown)
VH: B1 VH with G31Y
VL: B1 VL
B5: humanized anti-GPVI Fab VL1 with VH5 (Fab, V domains shown)
VH: B1 VH with Y103E
VL: B1 VL
B6: humanized anti-GPVI Fab VL2 with VH2 (Fab, V domains shown)
VH: B1 VH
VL: B1 VL with N93H
B7: humanized anti-GPVI Fab VL3 with VH2 (Fab, V domains shown)
VH: B1 VH
VL: B1 VL with N93L
B8: humanized anti-GPVI Fab VL3 with VH4 (Fab, V domains shown)
VH: B1 VH with G31Y
VL: B1 VL with N93L

biological target: T1, human GPVI on the platelet surface; assay: cell-based or functional assay

| Binder | IC50, inhibition of collagen induced platelet aggregation (human platelet rich plasma) |
| --- | --- |
| B1 | 2.3 µg/mL and 2 µg/mL and 1.1 µg/mL |
| B2 | 1.5 µg/mL and 2.3 µg/mL |
| B3 | 1.5 µg/mL and 1.7 µg/mL |
| B4 | 1.6 µg/mL and 1.8 µg/mL and 1.2 µg/mL |
| B5 | 1.9 µg/mL and 2.3 µg/mL and 1.2 µg/mL |
| B6 | 1.4 µg/mL and 2.4 µg/mL and 2.3 µg/mL |
| B7 | 1.9 µg/mL and 0.9 µg/mL and 2.1 µg/mL |
| B8 | 1 µg/mL and 2.3 µg/mL and 2 µg/mL |
